These results are taken from the supplement of paper PMC10567573.

B1: TRIM35 (parent)
chain: DKELLCCSCQADPRHQGHRVQPVK
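Note: lentivirally expressed fusions sorted by FACS into six bins by GFP to DsRed ratio, PSI derived from sequencing read proportions per bin multiplied by bin number.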

In the series the parent is B1. The series can be described thus: protein stability index of a GFP-peptide fusion (GPS, HEK-293T) (PSI 1-6); higher = more stable. The note with it: c terminus: a fixed tail appended.
DKECLCCSCQADPRHQGHRVQPVK [L4C]: the protein stability index came to 4.27.
As for DKENLCCSCQADPRHQGHRVQPVK [L4N], the figure is 2.58; as for DKEQLCCSCQADPRHQGHRVQPVK [L4Q], 4.36.
As to DKERLCCSCQADPRHQGHRVQPVK [L4R], the protein stability index was 3.7.
Regarding DKEILCCSCQADPRHQGHRVQPVK [L4I], the protein stability index is 2.52.
As for DKEPLCCSCQADPRHQGHRVQPVK [L4P], the figure is 3.85; as for DKEFLCCSCQADPRHQGHRVQPVK [L4F], 3.31; as for DKEHLCCSCQADPRHQGHRVQPVK [L4H], 4.08.
As to DKEDLCCSCQADPRHQGHRVQPVK [L4D], the protein stability index turned out to be 4.47.
As for DKELLCCSCQADPRHQGHRVQKVK [P22K], the figure is 4.08.
Turning to DKELLCCSCQADPRHQGHRVQYVK [P22Y], the protein stability index amounted to 2.92.
As for DKELLCCSCQADPRHQGHRVQHVK [P22H], the protein stability index worked out at 3.31.
As for DKELLCCSCQADPRHQGHRVQSVK [P22S], the figure is 3.08; as for DKELLCCSCQADPRHQGHRVQIVK [P22I], 3.04; as for DKELLCCSCQADPRHQGHRFQPVK [V20F], 3.48.
DKELLCCSCQADPRHQGHRYQPVK [V20Y]: the protein stability index came out at 3.04.
As for DKELLCCSCQADPRHQGHRIQPVK [V20I], the figure is 3.44; as for DKELLCCSCQADPRHQGHRTQPVK [V20T], 3.5; as for DKELLCCSCQADPRHQGHRGQPVK [V20G], 4.15.
For DKELLCCSCQADPRHQGHRHQPVK [V20H], the protein stability index is 4.69.
For DKELLCCSCQADPRHQGHRLQPVK [V20L] the value was 3.91.
For DKELLCCSCQADPRHQGHRRQPVK [V20R] the value was 3.5; for DKELLCCSCQADPRHQGHRVMPVK [Q21M], 3.68; for DKELLCCSCQADPRHQGHRVKPVK [Q21K], 3.74.
As for DKELLCCSCQADPRHQGHRVCPVK [Q21C], the protein stability index was determined as 3.92.
As for DKELLCCSCQADPRHQGHRVNPVK [Q21N], the figure is 4.
Regarding DKELLCCSCQADPRHQGHRVHPVK [Q21H], the protein stability index was 3.61.
On to DKELLCCSCQADPRHQGHRVTPVK [Q21T], for which the protein stability index worked out at 1.96.
For DKELLCCSCQADPRHQGHRVRPVK [Q21R] the value was 3.71; for DKELLCCSCQADPRHQGHRVAPVK [Q21A], 3.79.
Turning to DKELLCCSCQADPRHQGHRVGPVK [Q21G], the protein stability index was found to be 3.28.
For DKELLCCSCQADPRHQGHRVSPVK [Q21S] the value was 3.96; for HKELLCCSCQADPRHQGHRVQPVK [D1H], 3.02.
Consider CKELLCCSCQADPRHQGHRVQPVK [D1C], for which the protein stability index worked out at 3.49.
As for IKELLCCSCQADPRHQGHRVQPVK [D1I], the figure is 2.38.
For PKELLCCSCQADPRHQGHRVQPVK [D1P] the value was 3.49; for NKELLCCSCQADPRHQGHRVQPVK [D1N], 3.77.
For AKELLCCSCQADPRHQGHRVQPVK [D1A] the value was 3.15; for FKELLCCSCQADPRHQGHRVQPVK [D1F], 2.79; for SKELLCCSCQADPRHQGHRVQPVK [D1S], 3.31.
Turning to DKELLCCSCQFDPRHQGHRVQPVK [A11F], the protein stability index is 4.14.
As for DKELLCCSCQSDPRHQGHRVQPVK [A11S], the figure is 3.67.
As for DKELLCCSCQQDPRHQGHRVQPVK [A11Q], the figure is 3.41.
For DKELLCCSCQLDPRHQGHRVQPVK [A11L] the value was 3.46; for DKELLCCSCQIDPRHQGHRVQPVK [A11I], 3.52; for DKELLCCSCQTDPRHQGHRVQPVK [A11T], 4.25.
For DKELLCCSCQMDPRHQGHRVQPVK [A11M], the protein stability index was determined as 2.76.
DKELLCCSCQEDPRHQGHRVQPVK [A11E]: the protein stability index was 3.26.
As for DKELLCCSCQPDPRHQGHRVQPVK [A11P], the figure is 3.87; as for DKELLCCSCYADPRHQGHRVQPVK [Q10Y], 3.49; as for DKELLCCSCEADPRHQGHRVQPVK [Q10E], 4.44.
Turning to DKELLCCSCGADPRHQGHRVQPVK [Q10G], the protein stability index amounted to 2.6.
As for DKELLCCSCWADPRHQGHRVQPVK [Q10W], the figure is 2.53; as for DKELLCCSCNADPRHQGHRVQPVK [Q10N], 4.07; as for DKELLCCSCMADPRHQGHRVQPVK [Q10M], 3.27.
As for DKELLCCSCCADPRHQGHRVQPVK [Q10C], the protein stability index is 3.38.
As for DKELLCCSCFADPRHQGHRVQPVK [Q10F], the figure is 3.01.
As for DKELLCCSCTADPRHQGHRVQPVK [Q10T], the figure is 4.04; as for DKELLFCSCQADPRHQGHRVQPVK [C6F], 2.99.
For DKELLVCSCQADPRHQGHRVQPVK [C6V] the value was 2.25; for DKELLLCSCQADPRHQGHRVQPVK [C6L], 3.41; for DKELLMCSCQADPRHQGHRVQPVK [C6M], 3.74.
For the variant DKELLACSCQADPRHQGHRVQPVK [C6A], the protein stability index was 3.61.
For the variant DKELLKCSCQADPRHQGHRVQPVK [C6K], the protein stability index stood at 4.36.
As for DKELLRCSCQADPRHQGHRVQPVK [C6R], the figure is 3.54.
With DKELLNCSCQADPRHQGHRVQPVK [C6N], the protein stability index amounted to 3.87.
Regarding DKELLHCSCQADPRHQGHRVQPVK [C6H], the protein stability index was 4.45.
In the case of DKELLPCSCQADPRHQGHRVQPVK [C6P], the protein stability index is 3.64.
As for DKELLDCSCQADPRHQGHRVQPVK [C6D], the protein stability index worked out at 5.31.
As for DKELLCCSVQADPRHQGHRVQPVK [C9V], the figure is 3.27.
For DKELLCCSIQADPRHQGHRVQPVK [C9I] the value was 4.14.
For DKELLCCSGQADPRHQGHRVQPVK [C9G] the value was 4.1; for DKELLCCSSQADPRHQGHRVQPVK [C9S], 4.47.
In the case of DKELLCCSRQADPRHQGHRVQPVK [C9R], the protein stability index stood at 4.42.
Consider DKELLCCSCQADPRHQGARVQPVK [H18A], for which the protein stability index is 3.89.
On to DKELLCCSCQADPRHQGNRVQPVK [H18N], for which the protein stability index was 3.98.
For DKELLCCSCQADPRHQGKRVQPVK [H18K] the value was 4.16; for DKELLCCSCQADPRHQGDRVQPVK [H18D], 3.91.
With DKELLCCSCQADPRHQGSRVQPVK [H18S], the protein stability index is 4.38.
DKELLCCSCQADPRHQGTRVQPVK [H18T]: the protein stability index was 3.88.
As to DKELLCCSCQADPRHQGQRVQPVK [H18Q], the protein stability index was 3.29.
On to DKALLCCSCQADPRHQGHRVQPVK [E3A], for which the protein stability index was determined as 2.92.
On to DKKLLCCSCQADPRHQGHRVQPVK [E3K], for which the protein stability index was found to be 3.52.
As for DKPLLCCSCQADPRHQGHRVQPVK [E3P], the figure is 3.09; as for DKVLLCCSCQADPRHQGHRVQPVK [E3V], 2.45.
Regarding DKHLLCCSCQADPRHQGHRVQPVK [E3H], the protein stability index worked out at 2.47.
With DKCLLCCSCQADPRHQGHRVQPVK [E3C], the protein stability index is 2.26.
Consider DKILLCCSCQADPRHQGHRVQPVK [E3I], for which the protein stability index was 2.51.
As for DKGLLCCSCQADPRHQGHRVQPVK [E3G], the figure is 2.43; as for DKYLLCCSCQADPRHQGHRVQPVK [E3Y], 2.46.
With DKNLLCCSCQADPRHQGHRVQPVK [E3N], the protein stability index came out at 3.68.
As for DKQLLCCSCQADPRHQGHRVQPVK [E3Q], the figure is 3.73; as for DKELLCCSCQADPRHQGHRVQPWK [V23W], 2.19.
With DKELLCCSCQADPRHQGHRVQPPK [V23P], the protein stability index came to 4.06.
